Substrate in series [1]: Nc1ccn([C@H]2C[C@H](O)[C@@H](COP(=O)(O)O)O2)c(=O)n1
Description: Kinetic parameters of PDT variants with deoxycytidine 5'-mono, -di and -triphosphate as donors and adenine as acceptor. The conditions noted are these: 37.0 °C; for Km: adenine as acceptor, fixed. It counts as biochemical, Lactobacillus leichmannii. The protocol: (§1) The standard assay (“first protocol for enzyme assay”) for the different NDTs consisted of 5-15 μg of NDT in 50 mM MES buffer pH 6.0, dNxP (dNMP, or dNDP or dNTP) 3 mM and a base 1 mM in a total volume of 50 μL. Assays were incubated for 60 min at 37° C. The products of the reactions were analyzed each 7 min by Rapid resolution high performance liquid chromatography using a reverse-phase column (ZORBAX Eclipse XDB-C18 2.1*50 mm 1.8 μM) with a flow rate of 0.25 ml/min and a linear gradient of 1-12% CH3CN (2-25% CH3CN or 1-90% CH3CN) in 20 mM triethylammonium acetate, pH 7.5, buffer for 7 min. The low resolution mass spectra of the newly synthesized deoxyribonucleotides were obtained on an Agilent 1200 series LC/MS 6120 quadrupole system using an atmospheric electrospray ionization system.
This hypothesis was confirmed by monitoring the specific activity, in the presence of dCDP or dCTP as donor and adenine as acceptor (see table 2 above). The kinetic parameters were determined for the best variants with dCMP, dCDP and dCTP as substrates, at a concentration of A being fixed (see table 3 below).

Substrate in series [2]: Nc1ncnc2c1ncn2[C@H]1C[C@H](O)[C@@H](COP(=O)(O)OP(=O)(O)OP(=O)(O)O)O1
Description: Spectrophotometric assay coupled to xanthine oxidase, dATP + C ⇄ dCTP + A. The note with it: 50 mM MES pH6.0, 37° C., pH 6.0. It counts as biochemical, Lactobacillus leichmannii. The protocol:
(§2) Further, the cinetic parameters of these mutant enzymes were analysed, using a specific spectrophotometric assay. Briefly, the assay consists in measuring the formation of the final product (2,8 dihydroxyadenine) of the reaction:
(§3) Briefly, the assay was performed using the coupling of two enzymes: the variant (PDTT2, PDTT4, PDTT5, PDTT6, or PDTT7) to be tested and xanthine oxidase (obtained from Roche). The reaction mixture contained varying concentrations of dATP, 1 mM cytosine in a 50 mM MES buffer pH6.0 at 37° C. The reaction was initiated by adding 30 units of the purified variant to be tested and xanthine oxidase (Roche). The released adenine was then oxidized in 2,8-dihydroxyadenine which absorbs at 301 nm. The formation (i.e. concentration) of 2,8 dihydroxyadenine was measured by spectrophotometry.

The nature of series [3]: Standard enzyme assay (HPLC): specific activities of PDT variants with natural purines and pyrimidines. The conditions noted are these: donor 3 mM, acceptor 1 mM. It counts as biochemical. The protocol:
as §1
Unless specifically mentioned, the results presented hereafter have been obtained by using the first protocol for performing the enzyme assay.

Series [4] is described as follows: Catalytic activity of PDTT2 to PDTT7, dATP formed (HPLC). It counts as biochemical. The note with it: dCTP + A ⇄ dATP + C; 2 mM dCTP, 1 mM Adenine, 37° C., MES 50 mM pH6.0. The protocol:
In specific cases, an alternative protocol was used to perform the enzyme assay. In this second protocol, the dNxP (dNMP, or dNDP or dNTP) concentration was of only 2 mM, instead of 3 mM. All of the other conditions were identical to those of the first protocol.
The catalytic activity of the mutant enzymes PDTT2, PDTT3, PDTT3b, PDTT4, PDTT5, PDTT6, PDTT7 has been compared. Briefly, a sufficient amount of enzyme mutant necessary to obtain a linear reaction over a period of one hour at 37° C. has been mixed in 2 mM dCTP and 1 mM Adenine in a final volume of 50 μL of MES buffer 50 mM pH6.0. Assays were incubated for 60 min at 37° C. The products of the reactions were analyzed each 7 min by Rapid resolution high performance liquid chromatography using a reverse-phase column (ZORBAX Eclipse XDB-C18 2.1*50 mm […]) with a flow rate of 0.25 ml/min and a linear gradient of 1-12% CH3CN (2-25% CH3CN or 1-90% CH3CN) in 20 mM triethylammonium acetate, pH 7.5, buffer for 7 min.

Series [5] in a line: In vitro synthesis of deoxynucleotide analogues: specific activities. It counts as biochemical. How it is done:
as §1
The donor concentration was 3 mM and the acceptor 1 mM except for dCTP 2 mM 5-BrU 1 mM and dAMP 2 mM 5-FU 1 mM. Activities are expressed in nanomoles of deoxynucleotides synthesized per min per mg of protein.

A short description of series [6]: Spectrophotometric assay coupled to xanthine oxidase (2,8-dihydroxyadenine at 301 nm). It counts as biochemical. The conditions noted are these: dATP + C ⇄ dCTP + A; 1 mM cytosine, 50 mM MES pH6.0, 37° C. How it is done:
as §2, §3

By kcat is commonly meant the maximal rate divided by the concentration of active sites. A word on the Km: it is the concentration of substrate that gives half-maximal velocity. A word on the kcat/Km: it is the turnover number divided by the Michaelis constant.

Residue numbers refer to the chain shown, from its start. Numbers in names are those of the source.

B1: Lactobacillus leichmannii nucleoside deoxyribosyltransferase (NDT, SEQ ID NO:1) variant PDTT1, R13 G92 T93 S123 K157 (F13R/D92G/V93T/N123S/Y157K), SEQ ID NO:9 … (protein)
chain: MPKKTIYFGAGWRTDRQNKAYKEAMEALKENPTIDLENSYVPLDNQYKGIRVDEHPEYLHDKVWATATYNNDLNGIKTNDIMLGVYIPDEEGTGLGMELGYALSQGKYVLLVIPDEDYGKPISLMSWGVSDNVIKMSQLKDFNFNKPRFDFYEGAVK
notes: homohexamer (108 kDa)
With B1, the kcat in series [1] (other: PDTT1, first line, adenine acceptor, molecular mass of 108 kDa) is 0.46 s⁻¹. Besides, the Km in series [1] (other: PDTT1, first line) came out at 4100 µM; in series [1] (other: PDTT1, second line of the table), 8900 µM; in series [1] (other: PDTT1, third line of the table), 5500 µM.

B2: Lactobacillus leichmannii nucleoside deoxyribosyltransferase (NDT, SEQ ID NO:1) variant PDTT4, R13 Q91 G92 S93 S123 K157 (F13R/E91Q/D92G/V93S/N123S/Y157K), SEQ … (protein)
chain: B1 chain with E91Q, T93S
notes: xanthine oxidase is coupling enzyme only
For the molecule B2, in series [2] (other: PDTT4, 1 mM cytosine), the Km was 2300 µM, the kcat came out at 8.8 s⁻¹ and the kcat/Km worked out at 3800 M⁻¹ s⁻¹.

B3: Lactobacillus leichmannii nucleoside deoxyribosyltransferase (NDT, SEQ ID NO:1) variant PDTT5, R13 Q91 G92 P93 S123 R157 (F13R/E91Q/D92G/V93P/N123S/Y157R), SEQ … (protein)
chain: B1 chain with E91Q, T93P, K157R
notes: as for B2
Regarding B3, in series [2] (other: PDTT5, 1 mM cytosine), the Km was 200 µM, the kcat amounted to 8.78 s⁻¹ and the kcat/Km is 42800 M⁻¹ s⁻¹.

B4: PDTT2: NDT mutant R13 Q91 G92 T93 S123, SEQ ID NO:10 (protein)
chain: B1 chain with E91Q, K157Y
modifications: PDTT2 enzyme mutant
For B4, the Specific activity is listed as 8 nanomoles of deoxynucleotides synthesized per min per mg of protein in series [3] (dADP + C ⇄ dCDP + A); <0.1 nanomoles of deoxynucleotides synthesized per min per mg of protein in series [3] (dADP + Hx ⇄ dIDP + A); 31 nanomoles of deoxynucleotides synthesized per min per mg of protein in series [3] (dAMP + C ⇄ dCMP + A); <0.1 nanomoles of deoxynucleotides synthesized per min per mg of protein in series [3] (dAMP + Hx ⇄ dIMP + A); 15 nanomoles of deoxynucleotides synthesized per min per mg of protein in series [3] (dATP + C ⇄ dCTP + A); <0.1 nanomoles of deoxynucleotides synthesized per min per mg of protein in series [3] (dATP + Hx ⇄ dITP + A). For the same molecule, the Specific activity in series [3] (dCDP + A ⇄ dADP + C) is 66 nanomoles of deoxynucleotides synthesized per min per mg of protein; in series [3] (dCDP + U ⇄ dUDP + C (U used as acceptor base instead of T)), 8 nanomoles of deoxynucleotides synthesized per min per mg of protein; in series [3] (dCMP + A ⇄ dAMP + C), 286 nanomoles of deoxynucleotides synthesized per min per mg of protein; in series [3] (dCMP + T ⇄ dTMP + C), 1.1 nanomoles of deoxynucleotides synthesized per min per mg of protein; in series [3] (dCTP + A ⇄ dATP + C), 51 nanomoles of deoxynucleotides synthesized per min per mg of protein; in series [3] (dCTP + T ⇄ dTTP + C) it was 1.4 nanomoles of deoxynucleotides synthesized per min per mg of protein. Besides, the Specific activity in series [3] (dGDP + A ⇄ dADP + G) is listed as 33 nanomoles of deoxynucleotides synthesized per min per mg of protein; in series [3] (dGMP + A ⇄ dAMP + G), 50 nanomoles of deoxynucleotides synthesized per min per mg of protein; in series [3] (dGTP + A ⇄ dATP + G), 36 nanomoles of deoxynucleotides synthesized per min per mg of protein; in series [5] (dAMP + 5-FU → A + 5-F-dUMP, dAMP 2 mM 5-FU 1 mM), 48.4 nanomoles of deoxynucleotides synthesized per min per mg of protein; in series [5] (dCMP + 2,6-D → C + 2,6-DMP, donor 3 mM, acceptor 1 mM), 95.8 nanomoles of deoxynucleotides synthesized per min per mg of protein; in series [5] (dCMP + 2,6-chloropurine → C + 2,6-dichloropurine 2′-deoxyribose 5′-monophosphate, donor 3 mM, acceptor 1 mM), 37 nanomoles of deoxynucleotides synthesized per min per mg of protein. Also, the Specific activity is given as 10.7 nanomoles of deoxynucleotides synthesized per min per mg of protein in series [5] (dCMP + 5-BrU → C + 5-Br-dUMP, donor 3 mM, acceptor 1 mM); 75 nanomoles of deoxynucleotides synthesized per min per mg of protein in series [5] (dCMP + 6-chloropurine → C + 6-chloropurine 2′-deoxyribose 5′-monophosphate, donor 3 mM, acceptor 1 mM); 17 nanomoles of deoxynucleotides synthesized per min per mg of protein in series [5] (dCTP + 2,6-D → C + 2,6-DTP, donor 3 mM, acceptor 1 mM); 14 nanomoles of deoxynucleotides synthesized per min per mg of protein in series [5] (dCTP + 2,6-chloropurine → C + 2,6-dichloropurine 2′-deoxyribose 5′-triphosphate, donor 3 mM, acceptor 1 mM); 12 nanomoles of deoxynucleotides synthesized per min per mg of protein in series [5] (dCTP + 5-BrU → C +5-Br-dUTP, dCTP 2 mM 5-BrU 1 mM); 39.4 nanomoles of deoxynucleotides synthesized per min per mg of protein in series [5] (dCTP + 5-FU → C + 5-F-dUTP, donor 3 mM, acceptor 1 mM). Moreover, the Specific activity in series [5] (dCTP + 6-chloropurine → C + 6-chloropurine 2′-deoxyribose 5′-triphosphate, donor 3 mM, acceptor 1 mM) is recorded as 15 nanomoles of deoxynucleotides synthesized per min per mg of protein; in series [5] (dCTPαS + A → C + dATPαS, donor 3 mM, acceptor 1 mM), 54 nanomoles of deoxynucleotides synthesized per min per mg of protein. Moreover, the “Catalytic activity (nmol of dATP formed/min/mg of enzyme protein)” value in series [4] is on record as 9.6 nmol of dATP formed/min/mg of enzyme protein.

B5: PDTT6: PDTT4 mutant with Arginine at position 157, SEQ ID NO:43 (protein)
chain: B1 chain with E91Q, T93S, K157R
modifications: amino acid sequence of PDTT6 (G92/S123/R13/S93/R157/Q91)
In the case of B5, the “Catalytic activity (nmol of dATP formed/min/mg of enzyme protein)” value in series [4] was 18.6 nmol of dATP formed/min/mg of enzyme protein. Besides, in series [6], the Km was found to be 500 µM and the kcat was found to be 10 s⁻¹.

B6: PDTT7: PDTT3b mutant with Arginine at position 157, SEQ ID NO:42 (protein)
chain: B1 chain with E91Q, T93G, K157R
modifications: amino acid sequence of PDTT7 (G92/S123/R13/G93/R157/Q91)
For the molecule B6, the “Catalytic activity (nmol of dATP formed/min/mg of enzyme protein)” value in series [4] was 17.9 nmol of dATP formed/min/mg of enzyme protein. Further, in series [6], the Km was found to be 2600 µM and the kcat came out at 10 s⁻¹.

The record behind these values is patent publication US9523084B2, “Phosphodeoxyribosyl transferase mutant enzymes and uses thereof” (Centre National De La Recherche Scientifique, priority 2012, dated 2016).
